The test has as its target Burkholderia cenocepacia cytosolic carboxypeptidase (BcCCP) (Burkholderia cenocepacia J2315). Kind of test: SEC-MALS; Superdex 200 10/300, 50 mM Tris-HCl, 250 mM NaCl pH 7.5; Wyatt miniDAWN TREOS and Optilab T-rEX detectors. For orientation: Size exclusion chromatography separates by hydrodynamic size, large species first.

The stoichiometry N is a count of units in the complex or per binding partner. As to “Burkholderia cenocepacia cytosolic carboxypeptidase (BcCCP) (enzyme)”, the stoichiometry N worked out at 4.

For the origin of these results see PMC3940198.
